Measured values published in the supplement of paper PMC7125110.
± gives the standard error. Fewer inactive variants are shown than the library holds.

B1: glmS ribozyme (parent)
chain: AUAAAAGCGCCAGAACUACAGAAAUGUAGUUGACGAGGAGGAGGUUUAUCGAAUUUUCGGCGGAUGCCUCCAAA

Legend:
Conditions in all cases: with glucosamine-6-phosphate
glucosamine-6-phosphate [1] = variants of: B1; assay: self-cleavage kobs at 640 uM GlcN6P; higher = faster cleavage; RNA array
In short: (§1)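 Barcoded ribozyme variants on sequenced MiSeq chips were transcribed in situ by E. coli RNA polymerase and followed at 37 °C through a hybridised Cy3 probe. Glucosamine-6-phosphate at 40 μM to 10 mM in HEPES/KCl/Mg(OAc)2 buffer was flowed in, and tiles were imaged over ~14 h. Signals were normalised to baseline and to non-cleaving reference variants, and per-tile medians were fit to one- or two-exponential decays to give kobs. Weighted Michaelis–Menten fits across concentrations gave kcat and KM.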

glucosamine-6-phosphate [2] = variants of: B1; assay: self-cleavage kobs at 2500 uM GlcN6P; higher = faster cleavage; RNA array
In short: as §1

glucosamine-6-phosphate [3] = variants of: B1; assay: self-cleavage kobs at 10000 uM GlcN6P; higher = faster cleavage; RNA array
In short: as §1

Variant	self-cleavage kobs at 640 uM GlcN6P (glucosamine-6-phosphate [1])	self-cleavage kobs at 2500 uM GlcN6P (glucosamine-6-phosphate [2])	self-cleavage kobs at 10000 uM GlcN6P (glucosamine-6-phosphate [3])
U45G U46A U57G	< 1e-05 s⁻¹		
G43U C70G C71A	< 1e-05 s⁻¹	< 1e-05 s⁻¹	
U31C G60A U69A	< 1e-05 s⁻¹		
C11A U30G U65C	< 1e-05 s⁻¹	< 1e-05 s⁻¹	
G43A U55A C58U	< 1e-05 s⁻¹		
C10U C16U A39U G60U C67G U69G	< 1e-05 s⁻¹	< 1e-05 s⁻¹	
G44C C70A	< 1e-05 s⁻¹	< 1e-05 s⁻¹	< 1e-05 s⁻¹
A12G A48C A52U	< 1e-05 s⁻¹	< 1e-05 s⁻¹	
A36U A53U U65A	< 1e-05 s⁻¹	< 1e-05 s⁻¹	
A6G G38A C50G	0.00032 ± 7.9e-05 s⁻¹	0.000113 ± 3.5e-05 s⁻¹	
A15G G35A G44U C50G G59C G60C	< 1e-05 s⁻¹		
G32A U49G C58G G63U U69G	0.000279 ± 9.2e-05 s⁻¹	0.000153 ± 3.7e-05 s⁻¹	
A6G G29U G62C	< 1e-05 s⁻¹		
U54A U57A	4.89e-05 ± 1.3e-05 s⁻¹	0.000102 ± 2.8e-05 s⁻¹	
C61U C67G	< 1e-05 s⁻¹		
G13U U56G C70G	6.47e-05 ± 3.1e-05 s⁻¹	4.09e-05 ± 1.9e-05 s⁻¹	
A14G C50G G51C C61U U69A	0.000136 ± 6.5e-05 s⁻¹		
C8U U56G G63A	< 1e-05 s⁻¹		
U46G C50U C67U C68A U69G	0.00024 ± 9.9e-05 s⁻¹		4.36e-05 ± 1.5e-05 s⁻¹
A33C G35C A42G G51U C70G	< 1e-05 s⁻¹	< 1e-05 s⁻¹	
A14U G29A G62A U69G	7.37e-05 ± 2.9e-05 s⁻¹		
A14U G40C G44C U45C C70U	< 1e-05 s⁻¹	< 1e-05 s⁻¹	

Variant	self-cleavage kobs at 640 uM GlcN6P (glucosamine-6-phosphate [1])	self-cleavage kobs at 2500 uM GlcN6P (glucosamine-6-phosphate [2])	self-cleavage kobs at 10000 uM GlcN6P (glucosamine-6-phosphate [3])
A14U A64U U65A C67G C71G	7.6e-05 ± 2.4e-05 s⁻¹	4.74e-05 ± 2.1e-05 s⁻¹	
A12C U46C C67G	6.73e-05 ± 1.7e-05 s⁻¹	0.000179 ± 5.3e-05 s⁻¹	
U57G G62C C68U C70G	4.22e-05 ± 2e-05 s⁻¹		
G9C A53C C70U	< 1e-05 s⁻¹	< 1e-05 s⁻¹	
U31C G44A U46G G59A C70U	< 1e-05 s⁻¹	< 1e-05 s⁻¹	
A36U A42C U47A	< 1e-05 s⁻¹	< 1e-05 s⁻¹	
A12U G44C A48U C58G C67G C71U	< 1e-05 s⁻¹	< 1e-05 s⁻¹	
A12C U65G C67U	0.000474 ± 0.00016 s⁻¹		0.00133 ± 0.00031 s⁻¹
U65G A72C	0.000308 ± 7.4e-05 s⁻¹		
A42C U56C G60U	< 1e-05 s⁻¹		
A12C U30C A39U	0.000221 ± 4.3e-05 s⁻¹	0.000452 ± 0.00012 s⁻¹	
A14G A42G G59C	< 1e-05 s⁻¹		
G13U G35U G40U A53U	< 1e-05 s⁻¹		
A15C A33C G59C	< 1e-05 s⁻¹	< 1e-05 s⁻¹	
A33C A48C C71A	< 1e-05 s⁻¹	< 1e-05 s⁻¹	
C8A G9A G13U	< 1e-05 s⁻¹		
G7U A14G G40U	< 1e-05 s⁻¹	< 1e-05 s⁻¹	
G9U C10G C11A	< 1e-05 s⁻¹		
A28C A33U G59U C61U	< 1e-05 s⁻¹		
G9A G13C U57C	< 1e-05 s⁻¹	< 1e-05 s⁻¹	
G32U U47A A53G U56A C71U	7.91e-05 ± 2.4e-05 s⁻¹	0.000259 ± 6.2e-05 s⁻¹	
C34U G35C C50U C67A	< 1e-05 s⁻¹	< 1e-05 s⁻¹	

Variant	self-cleavage kobs at 640 uM GlcN6P (glucosamine-6-phosphate [1])	self-cleavage kobs at 2500 uM GlcN6P (glucosamine-6-phosphate [2])	self-cleavage kobs at 10000 uM GlcN6P (glucosamine-6-phosphate [3])
G7C A14U U56A	< 1e-05 s⁻¹	< 1e-05 s⁻¹	
G51U A53U U54A	< 1e-05 s⁻¹		< 1e-05 s⁻¹
G29C G37A G38U A52G	< 1e-05 s⁻¹		
C34A A53G U56C	< 1e-05 s⁻¹		
G32C G35U A36C C68A	< 1e-05 s⁻¹	< 1e-05 s⁻¹	
C34U U55A U57G C61U	< 1e-05 s⁻¹		< 1e-05 s⁻¹
G7U C8U G40U G62C	< 1e-05 s⁻¹		
U30A A33C G40A C71U	< 1e-05 s⁻¹		
A33C G66C C68G C70A	< 1e-05 s⁻¹		
G44C U57G C58U	< 1e-05 s⁻¹		
G13A C16A C68G	7.67e-05 ± 3.7e-05 s⁻¹		
G7A A48G A64U C70U	< 1e-05 s⁻¹		
C34G U46G U65A	< 1e-05 s⁻¹	< 1e-05 s⁻¹	
G7A C34A G43A G66U U69G	< 1e-05 s⁻¹	< 1e-05 s⁻¹	
G29C U49C C50G G51U U65C	< 1e-05 s⁻¹	< 1e-05 s⁻¹	
C34A A53U C70U	< 1e-05 s⁻¹		
A6G C11G C34U U45G	< 1e-05 s⁻¹		
A53U C58A C68U	9.67e-05 ± 3.2e-05 s⁻¹	6.03e-05 ± 2e-05 s⁻¹	
G13U G60U C68A C71A	< 1e-05 s⁻¹	< 1e-05 s⁻¹	
G32A G44U C67G	0.000431 ± 0.0001 s⁻¹	0.00127 ± 0.00059 s⁻¹	
C10U A36U C70A	0.00107 ± 0.00039 s⁻¹		
C10G G40U C71U	< 1e-05 s⁻¹	< 1e-05 s⁻¹	

Variant	self-cleavage kobs at 640 uM GlcN6P (glucosamine-6-phosphate [1])	self-cleavage kobs at 2500 uM GlcN6P (glucosamine-6-phosphate [2])	self-cleavage kobs at 10000 uM GlcN6P (glucosamine-6-phosphate [3])
A15C A48U C68U	< 1e-05 s⁻¹		
G7U U30A G63A	< 1e-05 s⁻¹		
G13C U46G A53U U54A	< 1e-05 s⁻¹		
A15U U31C U55G G63U	< 1e-05 s⁻¹		
U49A C50A C70G	5.26e-05 ± 2.2e-05 s⁻¹	4.46e-05 ± 2e-05 s⁻¹	
C16A C68G	0.000279 ± 0.00013 s⁻¹	3.3e-05 ± 9.2e-06 s⁻¹	
C8G A15C C16U	< 1e-05 s⁻¹		
C8G A39U U46G U69G	< 1e-05 s⁻¹	< 1e-05 s⁻¹	
C10U A53U C67A C68G	4.13e-05 ± 1.9e-05 s⁻¹		
C16A G66U C68G	6.61e-05 ± 2.5e-05 s⁻¹	6.82e-05 ± 2.8e-05 s⁻¹	
U49C C50U G51A	< 1e-05 s⁻¹	< 1e-05 s⁻¹	
C11U G13A G44U	< 1e-05 s⁻¹	< 1e-05 s⁻¹	
C10A G13C C61G G66A C70A	0.000102 ± 4.5e-05 s⁻¹		
C16A G41U	< 1e-05 s⁻¹		
U45G U55C C68U	< 1e-05 s⁻¹		
U47A A48U C58G	< 1e-05 s⁻¹	< 1e-05 s⁻¹	
A6C C11A U47C	< 1e-05 s⁻¹	< 1e-05 s⁻¹	
G9C A39G G40U	< 1e-05 s⁻¹	< 1e-05 s⁻¹	< 1e-05 s⁻¹
A33U G60A A64G	< 1e-05 s⁻¹	< 1e-05 s⁻¹	
G51U A52G G59A	< 1e-05 s⁻¹	< 1e-05 s⁻¹	
C11U G13A A48G U56C	< 1e-05 s⁻¹		
C11U G35U C68G C70A	0.000984 ± 0.00032 s⁻¹		

Variant	self-cleavage kobs at 640 uM GlcN6P (glucosamine-6-phosphate [1])	self-cleavage kobs at 2500 uM GlcN6P (glucosamine-6-phosphate [2])	self-cleavage kobs at 10000 uM GlcN6P (glucosamine-6-phosphate [3])
G37C U49C	< 1e-05 s⁻¹	< 1e-05 s⁻¹	< 1e-05 s⁻¹
A15U G66C C68A	8.24e-05 ± 3.9e-05 s⁻¹	6.09e-05 ± 2.8e-05 s⁻¹	
C16U C34A G37A C68G	0.000275 ± 0.00012 s⁻¹		
G7A A14G G29U C70G	< 1e-05 s⁻¹	< 1e-05 s⁻¹	
A36C G37A G43U C61G C67A	< 1e-05 s⁻¹	< 1e-05 s⁻¹	
C10G G60U G63U	< 1e-05 s⁻¹		
A12G G37C U57A	< 1e-05 s⁻¹	< 1e-05 s⁻¹	
A33C C34A U57G	< 1e-05 s⁻¹		
A33G C50G C68G	0.00023 ± 6.4e-05 s⁻¹	0.000213 ± 4e-05 s⁻¹	
A15G G35C A42U C50G C68A C71U	< 1e-05 s⁻¹	< 1e-05 s⁻¹	
A36C G51U C70G	0.000181 ± 5.1e-05 s⁻¹	4.65e-05 ± 1.9e-05 s⁻¹	
A6C C8G A48G G60U C68U	< 1e-05 s⁻¹	< 1e-05 s⁻¹	
G29A U69A	7.98e-05 ± 2.2e-05 s⁻¹	3.9e-05 ± 9.8e-06 s⁻¹	
C10G C16A A53U G66U U69A	5.56e-05 ± 2.7e-05 s⁻¹	4.65e-05 ± 2e-05 s⁻¹	
G35C A36U G40A	< 1e-05 s⁻¹	< 1e-05 s⁻¹	
G38A U57A	< 1e-05 s⁻¹		< 1e-05 s⁻¹
A14U A42C A64C	< 1e-05 s⁻¹	< 1e-05 s⁻¹	< 1e-05 s⁻¹
U54A A64G C68G	5.8e-05 ± 2.1e-05 s⁻¹	0.000109 ± 3.5e-05 s⁻¹	
A33U C34U A36C U69G	0.000124 ± 6e-05 s⁻¹		
G9U U54G C68U	< 1e-05 s⁻¹		
U46G A53G C70A	0.000507 ± 0.0001 s⁻¹		
U47C G59U	< 1e-05 s⁻¹		

Variant	self-cleavage kobs at 640 uM GlcN6P (glucosamine-6-phosphate [1])	self-cleavage kobs at 2500 uM GlcN6P (glucosamine-6-phosphate [2])	self-cleavage kobs at 10000 uM GlcN6P (glucosamine-6-phosphate [3])
G38A A42U G60U C71G	< 1e-05 s⁻¹		
C8U C10U C11U G51C	< 1e-05 s⁻¹		
A14G A15C G29A U47C C67A C71A	< 1e-05 s⁻¹		
C8U G9C C50A G51U G60U	< 1e-05 s⁻¹		
U47G A52U C68G	0.000113 ± 4.9e-05 s⁻¹		
A6G A14C C16G G40C	< 1e-05 s⁻¹	< 1e-05 s⁻¹	
U57G G59U	< 1e-05 s⁻¹	< 1e-05 s⁻¹	< 1e-05 s⁻¹
U30G U45A G59C	< 1e-05 s⁻¹	< 1e-05 s⁻¹	
A6U A14C G51C	< 1e-05 s⁻¹	< 1e-05 s⁻¹	
G37A A48C U55G	< 1e-05 s⁻¹		
C11A U30C G38U	< 1e-05 s⁻¹	< 1e-05 s⁻¹	
A12U G32C C50G C70G	0.000371 ± 0.00015 s⁻¹	0.000257 ± 8.3e-05 s⁻¹	
A33G A36G G38A	< 1e-05 s⁻¹		
A12C G43A C61U	< 1e-05 s⁻¹	< 1e-05 s⁻¹	
G26U A42G U55C	0.0103 ± 0.0029 s⁻¹		
G9C C10U U55A	< 1e-05 s⁻¹	< 1e-05 s⁻¹	
G13C A48C C68G	< 1e-05 s⁻¹		
G43C A52C C68A	< 1e-05 s⁻¹		
G9U G29C U54G U69A	< 1e-05 s⁻¹	< 1e-05 s⁻¹	
A36C G37A A64C G66A	< 1e-05 s⁻¹		
G29C A48G G60A	< 1e-05 s⁻¹		
C10U A39U A52U C58G C71U	< 1e-05 s⁻¹	< 1e-05 s⁻¹	
